Measured values reported in paper PMC3220268, “Phosphorylation of the Arp2 Subunit Relieves Auto-inhibitory Interactions for Arp2/3 Complex Activation” (PLoS Computational Biology, 2011).

Key:
[1] = biological target: recombinant Arp2/3 complex with ARPC4 R105A and R106A mutations (UniProt P61158 1-418; P61160 1-394; O15143 1-372; O15144 1-300; O15145 1-178; P59998 …, R105A | R106A); assay: pull-down; GST-NWASP VCA covalently coupled to Activated CH-sepharose 4B; beads added to Arp2/3 complex, room temperature, 30 min; beads spun at 700 x g, Coomassie-stained gels quantified and fitted; conditions: both partners purified
[2] = biological target: recombinant Arp2/3 complex with Arp2 T237A, T238A, and Y202A mutations (UniProt P61158 1-418; P61160 1-394; O15143 1-372; O15144 1-300; O15145 1-178; P59998 …, T237A | T238A | Y202A); assay: as above; conditions: both partners purified

Kd [1]: 0.06 µM
Kd [2]: 0.5 µM
B1: GST-NWASP VCA (domain or fragment)
chain: PSDGDHQVPTTAGNKAALLDQIREGAQLKKVEQNSRPVSCSGRDALLDQIRQGIQLKSVADGQESTPPTPAPTSGIVGALMEVMQKRSKAIHSSDEDEDEDDEEDFEDDDEWED
